Measured values published in publication PMC11009412, “Pathogenic mutations of human phosphorylation sites affect protein–protein interactions” (Nature Communications, 2024).

B1: MSANTD2 (protein, UniProt Q6P1R3 1-559, looked up)
Myb/SANT-like DNA-binding …: MAAPCGSELPANSPLKIPKMEVLSPASPGGLSDGNPSLSDPSTPRGASPLGPGSAAGSGAAASGGLGLGLGGRSAASSSVSFSPGGGGGGAAAAAAAACRGMSWTPAETNALIAVWGNERLVEARYQQLEGAGTVFGSKAPGPAMYERVSRALAELGYERTPSQCRERIKTLRRCYSRVKEHGVGKRKSSYTFEQLEQVFGQGGWDAQPCQPVLINSSGLYQELESDGSTMEDYSQEDWGNHSQDLHGYPTDQELDEIPVTKRTLKIKQESSEEAQKRDIMQNIVQILESVQLKWELFQSWTDFSRLHLSNKLAIFGIGYNTRWKEDIRYHYAEISSQVPLGKRLREYFNSEKPEGRIIMTRVQKMNWKNVYYKFLEITISEARCLELHMEIDWIPIAHSKPTGGNVVQYLLPGGIPKSPGLYAIGYEECIERPLSPHMEQSSLDPGKEGRVDLETLSAQASLQVEIEPTRIIYCYLGIAEVRTLQQCLFLHFQANTKTFSKDWVGINGFLSQNCIVDPGVSPKSIYIKFVEVERDFLSAGSLVECLEKAIGYPLKFNN
B2: KNOP1 (protein, UniProt Q1ED39 1-458, looked up)
Lysine-rich nucleolar protein …: MITKTHKVDLGLPEKKKKKKVVKEPETRYSVLNNDDYFADVSPLRATSPSKSVAHGQAPEMPLVKKKKKKKKGVSTLCEEHVEPETTLPARRTEKSPSLRKQVFGHLEFLSGEKKNKKSPLAMSHASGVKTSPDPRQGEEETRVGKKLKKHKKEKKGAQDPTAFSVQDPWFCEAREARDVGDTCSVGKKDEEQAALGQKRKRKSPREHNGKVKKKKKIHQEGDALPGHSKPSRSMESSPRKGSKKKPVKVEAPEYIPISDDPKASAKKKMKSKKKVEQPVIEEPALKRKKKKKRKESGVAGDPWKEETDTDLEVVLEKKGNMDEAHIDQVRRKALQEEIDRESGKTEASETRKWTGTQFGQWDTAGFENEDQKLKFLRLMGGFKNLSPSFSRPASTIARPNMALGKKAADSLQQNLQRDYDRAMSWKYSRGAGLGFSTAPNKIFYIDRNASKSVKLED
B3: PDAP1 (protein, UniProt Q13442 1-181, looked up)
28 kDa heat- and acid-stable …: MPKGGRKGGHKGRARQYTSPEEIDAQLQAEKQKAREEEEQKEGGDGAAGDPKKEKKSLDSDESEDEEDDYQQKRKGVEGLIDIENPNRVAQTTKKVTQLDLDGPKELSRREREEIEKQKAKERYMKMHLAGKTEQAKADLARLAIIRKQREEAARKKEEERKAKDDATLSGKRMQSLSLNK
B4: NPAT (protein, UniProt Q14207 1-1427, looked up)
Protein NPAT: MLLPSDVARLVLGYLQQENLISTCQTFILESSDLKEYAEHCTDEGFIPACLLSLFGKNLTTILNEYVAMKTKETSNNVPAIMSSLWKKLDHTLSQIRSMQSSPRFAGSQRARTRTGIAEIKRQRKLASQTAPASAELLTLPYLSGQFTTPPSTGTQVTRPSGQISDPSRSYFVVVNHSQSQDTVTTGEALNVIPGAQEKKAHASLMSPGRRKSESQRKSTTLSGPHSTIRNFQDPNAFAVEKQMVIENAREKILSNKSLQEKLAENINKFLTSDNNIAQVPKQTDNNPTEPETSIDEFLGLPSEIHMSEEAIQDILEQTESDPAFQALFDLFDYGKTKNNKNISQSISSQPMESNPSIVLADETNLAVKGSFETEESDGQSGQPAFCTSYQNDDPLNALKNSNNHDVLRQEDQENFSQISTSIQKKAFKTAVPTEQKCDIDITFESVPNLNDFNQRGNSNAECNPHCAELYTNQMSTETEMAIGIEKNSLSSNVPSESQLQPDQPDIPITSFVSLGCEANNENLILSGKSSQLLSQDTSLTGKPSKKSQFCENSNDTVKLKINFHGSKSSDSSEVHKSKIEINVLEPVMSQLSNCQDNSCLQSEILPVSVESSHLNVSGQVEIHLGDSLSSTKQPSNDSASVELNHTENEAQASKSENSQEPSSSVKEENTIFLSLGGNANCEKVALTPPEGTPVENSHSLPPESVCSSVGDSHPESQNTDDKPSSNNSAEIDASNIVSLKVIISDDPFVSSDTELTSAVSSINGENLPTIILSSPTKSPTKNAELVKCLSSEETVGAVVYAEVGDSASMEQSLLTFKSEDSAVNNTQNEDGIAFSANVTPCVSKDGGYIQLMPATSTAFGNSNNILIATCVTDPTALGTSVSQSNVVVLPGNSAPMTAQPLPPQLQTPPRSNSVFAVNQAVSPNFSQGSAIIIASPVQPVLQGMVGMIPVSVVGQNGNNFSTPPRQVLHMPLTAPVCNRSIPQFPVPPKSQKAQGLRNKPCIGKQVNNLVDSSGHSVGCHAQKTEVSDKSIATDLGKKSEETTVPFPEESIVPAAKPCHRRVLCFDSTTAPVANTQGPNHKMVSQNKERNAVSFPNLDSPNVSSTLKPPSNNAIKREKEKPPLPKILSKSESAISRHTTIRETQSEKKVSPTEIVLESFHKATANKENELCSDVERQKNPENSKLSIGQQNGGLRSEKSIASLQEMTKKQGTSSNNKNVLSVGTAVKDLKQEQTKSASSLITTEMLQDIQRHSSVSRLADSSDLPVPRTPGSGAGEKHKEEPIDIIKAPSSRRFSEDSSTSKVMVPPVTPDLPACSPASETGSENSVNMAAHTLMILSRAAISRTTSATPLKDNTQQFRASSRSTTKKRKIEELDERERNSRPSSKNLTNSSIPMKKKKIKKKKLPSSFPAGMDVDKFLLSLHYDE
B5: MFAP1 (protein, UniProt P55081 2-439, looked up)
Microfibrillar-associated …: SVPSALMKQPPIQSTAGAVPVRNEKGEISMEKVKVKRYVSGKRPDYAPMESSDEEDEEFQFIKKAKEQEAEPEEQEEDSSSDPRLRRLQNRISEDVEERLARHRKIVEPEVVGESDSEVEGDAWRMEREDSSEEEEEEIDDEEIERRRGMMRQRAQERKNEEMEVMEVEDEGRSGEESESESEYEEYTDSEDEMEPRLKPVFIRKKDRVTVQEREAEALKQKELEQEAKRMAEERRKYTLKIVEEETKKELEENKRSLAALDALNTDDENDEEEYEAWKVRELKRIKRDREDREALEKEKAEIERMRNLTEEERRAELRANGKVITNKAVKGKYKFLQKYYHRGAFFMDEDEEVYKRDFSAPTLEDHFNKTILPKVMQVKNFGRSGRTKYTHLVDQDTTSFDSAWGQESAQNTKFFKQKAAGVRDVFERPSAKKRKTT

Tested on: BirA*-FLAG-GATAD1 variants in Flp-In-293 cells
Assay: BioID proximity labelling of full-length GATAD1 variants (SILAC)
Type: cell-based, human
Conditions: GATAD1 WT vs S102P, significant proteins only; for Log2_Ratio.H.L.normalized.WT_S102P_forward: forward experiment (label swap performed, sign inverted against the H/L ratio); for Log2_Ratio.H.L.normalized.WT_S102P_forward / Log2_Ratio.H.L.normalized.WT_S102P_reverse: log2 of normalized H/L ratio; for Ratio.H.L.normalized.WT_S102P_forward: forward experiment; for Log2_Ratio.H.L.normalized.WT_S102P_reverse / Ratio.H.L.normalized.WT_S102P_reverse: reverse experiment
Description: The GATAD1 gene variants were ordered in a pTwist ENTR Kozak vector from Twist Bioscience. The genes were then transferred to a pDEST_pcDNA5_BirA_FLAG_Nterm vector[97] using the Gateway Clonase II system (Thermo Fisher Scientific). The resulting vectors, pEXPR_GATAD1-WT_N-term_BirA_FLAG, pEXPR_GATAD1-S102P_N-term_BirA_FLAG, pEXPR_GATAD1-S102D_N-term_BirA_FLAG, and pEXPR_GATAD1-S102A_N-term_BirA_FLAG, were used to generate tetracycline-inducible stable Flp-In^TM-293 T-REx cells. A 6-well plate was co-transfected with 0.5 µg of the pEXPR plasmid and 1 µg of the pOG44 Flp-recombinase expression vector (Thermo Fisher Scientific) using 4.5 µg of PEI (Polysciences) as a transfection reagent. The following day, the cells were trypsinized and transferred to a 10 cm dish containing DMEM supplemented with 10% FCS and 200 µg/ml hygromycin B (Invivogen) for selection. The cells were cultured for approximately 18 days with media exchange every 3 days until visible colonies were observed. After around 18 days, the colonies were trypsinized and transferred to another 10 cm dish for further characterization and experiments.
Stable Flp-In^TM-293 cell lines expressing GATAD1 variants were cultured using SILAC light (Lys0, Arg0) and SILAC heavy (Lys8, Arg10) media, as explained in the cell culture section. After full labeling, cells were split into 15 cm dishes and were treated with 1 μg/mL tetracycline for 24 h to induce the expression of GATAD1. After the induction period, cells were incubated with 50 μM biotin overnight for proximity biotinylation. As a control, wild-type GATAD1 cells, without biotin or tetracycline addition, were used. Samples were multiplexed, as shown in Supplementary Fig. 41A with both forward and reverse label swap (n = 2). Cells were then lysed in lysis buffer (50 mM Tris-HCl pH 7.5, 150 mM NaCl, 1% Triton X-100, 1 mM EDTA, 1 mM EGTA, 0.1% SDS) with freshly added protease inhibitors and 1% sodium deoxycholate. To digest the excess DNA, 1 μl of Benzonase was added, and the samples were incubated for 20 min at 37 °C. Biotinylated proteins were enriched for 3 h at 4 °C using streptavidin-sepharose beads (GE Cat# 17-5113-01). Beads were pre-washed twice with 0.01% BSA and twice with lysis buffer. After enrichment, the beads were washed one time with lysis buffer, two times with washing buffer (50 mM HEPES-KOH pH 8.0, 100 mM KCl, 10% glycerol, 2 mM EDTA, 0.1% NP-40), and six times with 50 mM ammonium bicarbonate. Beads were resuspended in ammonium bicarbonate, and an on-bead protein digest with 1 μg of trypsin followed overnight. The next day, the digested proteins were transferred to a fresh tube and were incubated with 10 mM DTT for 30 min at 37 °C and with 55 mM iodoacetamide for 20 min at 37 °C in the dark. Samples were desalted with StageTips.
Peptides were separated using reversed-phase liquid chromatography (EASY nLC II 1200, Thermo Fisher Scientific) with self-made C18 microcolumns (20 cm long) packed with ReproSil-Pur C18-AQ 1.9 μm resin (Dr. Maisch, cat# r119.aq.0001). The chromatography system was coupled online to the electrospray ion source (Proxeon) of an Orbitrap Exploris 480 mass spectrometer (Thermo Fisher Scientific). The mobile phase consisted of buffer A (0.1% formic acid and 5% acetonitrile) and buffer B (0.1% formic acid and 80% acetonitrile). Peptides were eluted using a gradient with increasing concentrations of buffer B over 110 minutes, at a flow rate of 250 nl/min. Mass spectrometry data was acquired in data-dependent mode with settings for one full scan (resolution: 60,000; m/z range: 350–1600; normalized AGC target: 300%; maximum injection time: 10 ms), followed by top 20 MS/MS scans using higher-energy collisional dissociation (resolution: 15,000; m/z range: 200–2000; normalized AGC target: 100%; maximum injection time: 120 ms; isolation width: 1.3 m/z; normalized collision energy: 28%).
Raw files were analyzed with MaxQuant, version 2.0.3.0. […]

| Molecule | Log2_Ratio.H.L.normalized.WT_S102P_forward | Ratio.H.L.normalized.WT_S102P_forward | Log2_Ratio.H.L.normalized.WT_S102P_reverse | Ratio.H.L.normalized.WT_S102P_reverse |
| --- | --- | --- | --- | --- |
| B1 | 1.423 | 0.373 | 1.156 | 2.2282 |
| B2 | 1.624 | 0.3245 | 1.083 | 2.1181 |
| B3 | 1.555 | 0.3404 | 1.001 | 2.0014 |
| B4 | 1.209 | 0.4326 | 1.214 | 2.3205 |
| B5 | 1.854 | 0.2766 | 1.161 | 2.2368 |
